Data on 23 sequences can be found in a protein production outcome set (Wang et al. 2014).

This series is described as follows: label from the status in PepcDB records.
Regarding “MDSGFTLRAPRNDKRRNPMPAILGTGEHRYRVVENFAKLPDGWQLTDVAAVAVDSLDRVYVFNRGAHPMVVLDREGNFLRSWGEGLFSRAHGLHIDADDNLYCTDDGDHTVRKCTSDGKVLLTIGIPAKPAPFMSGEPFHRCTHTALSPKGEIYVSDGYGNARVHKFTPDGKLIKSWGEPGTDPGQFNIVHNIATDSDGWVYVADRENHRVQVFNGEGKYETQWNNLHRPCALCCCGGRSPTFVIGELGPGLDINRNVPNLGPRLSIVDAKGNRIARLGGEEGPGVASGKFLAPHGIALDSKGDIYVGEVGVTNWATSFPDQEMPAVVRATRCLQKLERVRELEHHHHHH”, the protein production entry is on record as “failed”. The entry for “MDSGPLWDANPTPRGTLSAPNATTPWLGRDEELAKVEIGVLATVLVLATGGNLAVLLTLGQLGRKRSRMHLFVLHLALTDLAVALFQVLPQLLWDITYRFQGPDLLCRAVKYLQVLSMFASTYMLLAMTLDRYLAVCHPLRSLQQPGQSTYLLIAAPWLLAAIFSLPQVFIFSLREVIQGSGVLDCWADFGFPWGPRAYLTWTTLAIFVLPVTMLTACYSLICHEICKNLKVKTQAWRVGGGGWRTWDRPSPSTLAATTRGLPSRVSSINTISRAKIRTVKMTFVIVLAYIACWAPFFSVQMWSVWDKNAPDEDSTNVAFTISMLLGNLNSCCNPWIYMGFNSHLLPRPLRHLACCGGPQPRMRRRLSDGSLSSRHTTLLTRSSCPATLSLSLSLTLSGRPRPEESPRDLELADGEGTAETIIF” is “failed”. Regarding “MDSKQQRIGVIGTGAIGGFYGLMLAHAGHDVHFLLRSEFEAVNRAGLSLNSAVHGFRRLAPVQAYHSAQDMPPCDWLLVGAKTTGNDELAPLIRAAAAPGAKVLLLQNGLGVEERLRPLLPESLHLLGGLCFICVHRGEPGVIEHQAYGGVNLGYHSGPADERRRREIVEEGAALFRESGLESTAMPDLEQARWQKLVWNIPYNGLSVLLKSSTAPLMANADSRSLIEAIMEEVIGAAGACGFILPEGYADQLLAATERMPDYRPSMYHDFAHGRPLELAAIYAAPLARAAAAGYR”, the protein production result was “failed”. The entry for “MDSLRFNLQQSPFQLKPRILRPRITNISNRIDETDPRPSSSAGRIQRLVLNNEGRTKLNADPDREFYSYPRFVNHVDDSFISSLTELYRNRLRPGSTVLDLMSSWVSHLPEEVKYEKVVGHGLNAQELARNPRLDYFFVKDLNEDQKFEFEDKYFDAVLCSVGVQYLQQPEKVFAEVYRVLKPGGVLIVSFSNRMFYEKAIRVWRDGTEYSRIQLVVQYFQSIEGFTQPEIIRQQPGAQISVLTRLMGFIGLASTPDPFNAVIAYKNFKPIYE” is “failed”.

“MDSQELKTLINYYCQERYFHHVLLVASEGIKRYGSDPVFRFYHAYGTLMEGKTQEALREFEAIKNKQDVSLCSLLALIYAHKMSPNPDREAILESDARVKEQRKGAGEKALYHAGLFLWHIGRHDKAREYIDRMIKISDGSKQGHVLKAWLDITRGKEPYTKKALKYFEEGLQDGNDTFALLGKAQCLEMRQNYSGALETMNQIIVNFPSFLPAFVKKMKLQLALQNWDQTVETAQRLLLQDSQNVEALRMQALYYVCREGDIEKASTKLENLGNALDAMEPQNAQLFYNITLAFSRTCGRSQLILQKIQTLLERAFSLNPQQSEFATELGYQMILQGRVKEALKWYKTAMTLDETSVSALVGFIQCQLIEGQLQDADQQLEFLNEIQQSIGKSAELIYLHAVLAMKKNKRQEEVINLLNDVLDTHFSQLEGLPLGIQYFEKLNPDFLLEIVMEYLSFCPMQVSNYGTYFQGCVYLMFYERT”: the protein production result is recorded as “failed”. As for “MDSQTGVTRRRLLLGLGSGLGLLGGGGAYVYWSLQGDSGEYTAPNSQPVVTTRGLLDSAEEPAAETEGAWSFDDASEVFLFVHGFSTDAETARDNAYTAQLALGEYTSAPVVAYSWDSDVEWEQAKDNAVANRTLLAQWLMEWAETDGRPVHVLAHSLGARVTGETLRVLAEQGATDVLASVSLLGGAIPYDSVVQGGRYGDAIEAVDAPVSNFYSQNDKVLSWVYRASDRTHAVGHAGTRDAGPLPDGYQDVNVTDLVADHYSYFEPGEGCLARVVAEIE”, the protein production entry is recorded as “failed”. The entry for “MDSRLAMFAPCPRGLEQILADELLALGAGDIAPADGGVAFAGDARLMMAVNLHSRTASRVLLRLAHGGYHAEQDIYRLAMSVDWPRWFEVSRTIKLKADGIAARVKSLDYIGLTVKDAICDRFRQAHLGRPSVDTRHPDVRVNVFLTADEATIYLDTSGEPLFKRGWREETGEAPLRENLAAGILLLAGYDGSQPLLDPMCGSGTFLVEAADIALNRAPGRARRFGFEALSSFDSAAWEKLQQDARKAEQPASSLAIRGSDRSQAMVNIARANLERAGLAELVEVSAADVTASRPHAEHGLIVSNPPYGVRLEEQDQLAAWYPELGDWLKAHFAGWTACLFSGDLRLGKLIRLAPKRRTPLFNGSLQCRLFVINMVEGSARKQKDGDEAEIETGDEQ” is “failed”. The entry for “MDSSREANRKHDAEEKREDEKTSLMEVNLMVVLLSQLSTKKEDENGLEKERRDHVAHEARESRARANKRFMKDTKLMEKRTHVLQPMAKEFRHYRKM” is “failed”; for “MDTCGVGYVALGEAGPVGNMTVVDSPGQEVLNQLDVKTSSEMTSAEASVEMSLPTPLPGFEDSPDQRRLPPEQESLSRLEQPDLSSEMSKVSKPRASKPGRKRGGRTRKGPKRPQQPNPPSAPLVPGLLDQSNPLSTPMPKKRGRKSKAELLLLKLSKDLDRPESQSPKRPPEDFETPSGERPRRRAAQVALLYLQELAEELSTALPAPVSCPEGPKVSSPTKPKKIRQPAACPGGEEVDGAPRDEDFFLQVEAEDVEESEGPSESSSEPEPVVPRSTPRGSTSGKQKPHCRGMAPNGLPNHIMAPVWKCLHLTKDFREQKHSYWEFAEWIPLAWKWHLLSELEAAPYLPQEEKSPLFSVQREGLPEDGTLYRINRFSSITAHPERWDVSFFTGGPLWALDWCPVPEGAGASQYVALFSSPDMNETHPLSQLHSGPGLLQLWGLGTLQQESCPGNRAHFVYGIACDNGCIWDLKFCPSGAWELPGTPRKAPLLPRLGLLALACSDGKVLLFSLPHPEALLAQQPPDAVKPAIYKVQCVATLQVGSMQATDPSECGQCLSLAWMPTRPHQHLAAGYYNGMVVFWNLPTNSPLQRIRLSDGSLKLYPFQCFLAHDQAVRTLQWCKANSHFLVSAGSDRKIKFWDLRRPYEPINSIKRFLSTELAWLLPYNGVTVAQDNCYASYGLCGIHYIDAGYLGFKAYFTAPRKGTVWSLSGSDWLGTIAAGDISGELIAAILPDMALNPINVKRPVERRFPIYKADLIPYQDSPEGPDHSSASSGVPNPPKARTYTETVNHHYLLFQDTDLGSFHDLLRREPMLRMQEGEGHSQLCLDRLQLEAIHKVRFSPNLDSYGWLVSGGQSGLVRIHFVRGLASPLGHRMQLESRAHFNAMFQPSSPTRRPGFSPTSHRLLPTP” it is “failed”; for “MDTDNNLTFVDFYYRWLEITKLDIINDTSYKRYITAIKAFKDCFGNKLISDIDSLSYQKFLKDYGRGHFLNNGQLRPRTSNTVSKMNNCLKQAFESAVEQGYIKKNLEHHHHHH” it is “failed”. Then “MDTEMLIDKYQLNDSEAAVLRFMDKNRDCLKSLGIREVAKASYVSTTAIINMAKKIGYSGYSELVFAYGNKHSSISFPENFSNEEKDEFIRLLSRYREKRIMVLGSGFSQNIANHFSEMLNLYGFRATANSHLEFLRENVEKDVLIFIVSNSGDTLRLAELVKLAKNHHIDLIAFVGEKKSKIGQLATLTISTETYNPQVVSEYQPNLFFGTALNQFELLLSEALKSIFI”, with “not failed”; and “MDTPNKDDSIIRFSVSLQQNLLDELDNRIIKNGYSSRSELVRDMIREKLVEDNWAEDNPNDESKIAVLVVIYDHHQRELNQRMIDIQHASGTHVLCTTHIHMDEHNCLETIILQGNSFEIQRLQLEIGGLRGVKFAKLTKASSFEYNE”, with “failed”. As for “MDTQSLVPLSTLKQGEKAYVVDLELNGLLRRRVLDLGIVPGTSLQCVGTAPAGDPIAYLVRGTVIALRSEDARSIRVNSALV”, the protein production entry is recorded as “failed”. Take “MDTSNATSVVNVSASSSTSTIYDLGNMSKDEVVKLFEELGVFQAAILMFSYMYQAQSNLSIAKFADMNEASKASTTAQKMANLVDAKIADVQSSTDKNAKAKLPQDVIDYINDPRNDISVTGIRDLSGDLSAGDLQTVKAAISAKANNLTTVVNNSQLEIQQMSNTLNLLTSARSDVQSLQYRTISAISLGK”: the protein production entry is reported as “failed”.

Regarding “MDTVDLRHLDENLHHARTQFEVWARGRLSNLEEVQRTWQETTARVSRETETLVQRRTQFEAAAARLQERLEAEREELDALERGIAQLEARAAALPVRQQELEQEIAERRQEFERRRALLNACEEARRTRLLHLQKALVWYRDRLGLRFQRVGAASATEAGRVDGKVRVIFRHIDSRAPDREFAFTVYVDEDADLFRVEDCVPDIDVMKPTAGAANVRLAQMVETLNRTNDFGAFVAQMRRRFKAWVQMESTDQLAGRQA”, the protein production entry is reported as “failed”. The entry for “MDTWKVGPVELKSRLILGSGKYEDFGVMREAIAAAKAEVVTVSVRRVELKAPGHVGLLEALEGVRLLPNTAGARTAEEAVRLARLGRLLTGERWVKLEVIPDPTYLLPDPLETLKAAERLIEEDFLVLPYMGPDLVLAKRLAALGTATVMPLAAPIGSGWGVRTRALLELFAREKASLPPVVVDAGLGLPSHAAEVMELGLDAVLVNTAIAEAQDPPAMAEAFRLAVEAGRKAYLAGPMRPREAASPSSPVEGVPFTPTGPRPGRGPQ” is “not failed”. The entry for “MDTYMIDAELEHYLGERLSSSSRQALCRLHVRACARFHGAELEEYRRRLRAHARAYARLGRMLQSPFRHMETALFLSSFTLFVAGIIMVVNGDLSALVACGTAAGLVGMIECARKLAGHWHRYGVMEAVYRELEEQLANG” is “failed”. Then “MDVAGEKQQRKGEAIARIEAEKNAYTVAQLADEYFERMIAGRWKHPNIVRSRIEKDIKPAIGSLKVEDVKPRHIDDVLKAVMKRGAPSIANDTLRWLKRMFNYAIKRHIIEYNPAAAFLEHHHHHH”, with “failed”; and “MDVEPGKFYKGVVTRIEKYGAFINLNEQVRGLLRPRDMISLRLENLNVGDEIIVQAIDVRPEKREIDFKYIPLTTYDLVKYEKEVPLSQIKDISQNLEHHHHHH”, with “not failed”; and “MDVKTAAALHRLRLISLPEAISFPILLVCSVLKRTTEFDAVFPMGLIHGLLFTFYVIFWADAWNRAKWSKKKAAGYFLLAIPPFGGLFAERKLKREAEDAVIASRARREGTVNA”, with “failed”.

Turning to “MDVTIERVNDFDGYNWLPLLAKSSQEGFQLVERMLRNRREESFQEDGEAMFVALSTTNQVLACGGYMKQSGQARTGRIRHVYVLPEARSHGIGTALLEKIMSEAFLTYDRLVLYSEQADPFYQGLGFQLVSGEKITHTLDKTAFADSNR”, the protein production entry was “not failed”. For “MDVVDSLLVNGSNITPPCELGLENETLFCLDQPRPSKEWQPAVQILLYSLIFLLSVLGNTLVITVLIRNKRMRTVTNIFLLSLAVSDLMLCLFCMPFNLIPNLLKDFIFGSAVCKTTTYFMGTSVSVSTFNLVAISLERYGAICKPLQSRVWQTKSHALKVIAATWCLSFTIMTPYPIYSNLVPFTKNNNQTANMCRFLLPNDVMQQSWHTFLLLILFLIPGIVMMVAYGLISLELYQGIKFEASQKKSAKERKPSTTSSGKYEDSDGCYLQKTRPPRKLELRQLSTGSSSRANRIRSNSSAANLMAKKRVIRMLIVIVVLFFLCWMPIFSANAWRAYDTASAERRLSGTPISFILLLSYTSSCVNPIIYCFMNKRFRLGFMATFPCCPNPGPPGARGEVGEEEEGGTTGASLSRFSYSHMSASVPPQ”, the protein production result was “failed”. The entry for “MDWFSWLSRTNLEASLIYEYGLSFSNNELEYEDIAYFNHEFLQSMGISIAKHRLEILKLARRDRKPSPLTARSIFRVLIAIKKTGKCFSEHVRAWIRREESSRALVVVSRSTSSSGNGRWKSARKKRLVMPSNGNGVKEERLLLTNGTPCRLDSFSNPKVSSGYEDDDNHWGNKDVEEKIKWDSMFQNLKPT” is “failed”.
